Where a chain is given by its changes, count along the chain named. Numbered stars: 1 amine (or outer) side, 2 acyl side, 3 side chain; on linkers, the order of the positions; unused ones are H or OH. Square brackets hold non-standard residues; d marks the D form. Side chains are listed from the residue outwards. Ends that are not written are not given here. * marks the point of attachment. C20 diacid = O=C(O)CCCCCCCCCCCCCCCCCCC(=O)*; γGlu = O=C(O)[C@H](CCC(=O)[*:2])N[*:1]; AEEA = NCCOCCOCC(=O)O; Aib = CC(C)(N)C(=O)O
T1: human gastric inhibitory peptide receptor (human, UniProt P48546 22-466)
T1 sequence (looked up): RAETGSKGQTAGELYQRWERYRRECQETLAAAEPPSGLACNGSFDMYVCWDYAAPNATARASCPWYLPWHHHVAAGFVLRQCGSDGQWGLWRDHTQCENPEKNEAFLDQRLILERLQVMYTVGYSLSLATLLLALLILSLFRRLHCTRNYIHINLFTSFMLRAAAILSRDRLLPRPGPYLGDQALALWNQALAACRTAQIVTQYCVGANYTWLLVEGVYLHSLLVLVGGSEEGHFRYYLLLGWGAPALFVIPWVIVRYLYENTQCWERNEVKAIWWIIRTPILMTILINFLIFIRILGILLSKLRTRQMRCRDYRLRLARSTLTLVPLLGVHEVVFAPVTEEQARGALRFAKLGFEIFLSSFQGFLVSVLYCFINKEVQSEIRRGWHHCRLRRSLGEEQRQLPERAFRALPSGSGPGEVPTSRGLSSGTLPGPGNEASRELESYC

B1: Peptide 97 (peptide)
peptide: YXEGTFTSDYSIXLDKIAQXAFIEYLIKGG
modifications: Aib2; αMeL13; Aib20; K28((2-[2-(2-Amino-ethoxy)-ethoxy]-acetyl)2-(γGlu)-CO-(CH2)18-CO2H); C-terminal NH2
B2: Peptide 104 (peptide)
peptide: YXEGTXTSDYSIXLDEKAQXEFIEYLIEGG
modifications: Aib2; αMeF(2F)6; αMeL13; K17((2-[2-(2-Amino-ethoxy)-ethoxy]-acetyl)2-(γGlu)-CO-(CH2)16-CO2H); Aib20; C-terminal NH2
B3: Peptide 73 (peptide)
peptide: Y[Aib]EGTFTSDYSILLDKIAQ[Aib]AFIEYLIK([AEEA-AEEA-γGlu-C20 diacid])GG-NH2
modifications: N-terminus assumed
SMILES: CC[C@H](C)[C@H](NC(=O)[C@H](CCCCN)NC(=O)[C@H](CC(=O)O)NC(=O)[C@H](CC(C)C)NC(=O)[C@H](CC(C)C)NC(=O)[C@@H](NC(=O)[C@H](CO)NC(=O)[C@H](Cc1ccc(O)cc1)NC(=O)[C@H](CC(=O)O)NC(=O)[C@H](CO)NC(=O)[C@@H](NC(=O)[C@H](Cc1ccccc1)NC(=O)[C@@H](NC(=O)CNC(=O)[C@H](CCC(=O)O)NC(=O)C(C)(C)NC(=O)[C@@H](N)Cc1ccc(O)cc1)[C@@H](C)O)[C@@H](C)O)[C@@H](C)CC)C(=O)N[C@@H](C)C(=O)N[C@@H](CCC(N)=O)C(=O)NC(C)(C)C(=O)N[C@@H](C)C(=O)N[C@@H](Cc1ccccc1)C(=O)N[C@H](C(=O)N[C@@H](CCC(=O)O)C(=O)N[C@@H](Cc1ccc(O)cc1)C(=O)N[C@@H](CC(C)C)C(=O)N[C@H](C(=O)N[C@@H](CCCCNC(=O)COCCOCCNC(=O)COCCOCCNC(=O)CC[C@H](NC(=O)CCCCCCCCCCCCCCCCCCC(=O)O)C(=O)O)C(=O)NCC(=O)NCC(N)=O)[C@@H](C)CC)[C@@H](C)CC
B4: Peptide 60 (peptide)
peptide: YXEGTFTSDYSIXLDXKAQXAFIEYLIEGGPSSGAPPPS
modifications: Aib2; αMeL13; Aib16; K17((2-[2-(2-Amino-ethoxy)-ethoxy]-acetyl)2-(γGlu)-CO-(CH2)18-CO2H); Aib20; C-terminal NH2
B5: Peptide 3 (peptide)
peptide: B4 peptide with F6X, A21E, E24X
modifications: Aib2; αMeF(2F)6; αMeL13; Orn16; K17((2-[2-(2-Amino-ethoxy)-ethoxy]-acetyl)2-(γGlu)-CO-(CH2)18-CO2H); Aib20; D-Glu24; C-terminal NH2
B6: Peptide 69 (peptide)
peptide: B4 peptide with F6X, X16K
modifications: Aib2; αMeF6; αMeL13; K17((2-[2-(2-Amino-ethoxy)-ethoxy]-acetyl)2-(γGlu)-CO-(CH2)18-CO2H); Aib20; C-terminal NH2
B7: Peptide 84 (peptide)
peptide: B4 peptide with X13L, X16K, E24X
modifications: Aib2; K17((2-[2-(2-Amino-ethoxy)-ethoxy]-acetyl)2-(γGlu)-CO-(CH2)18-CO2H); Aib20; D-Glu24; C-terminal NH2
B8: Peptide 68 (peptide)
peptide: B4 peptide with S11X, X13L, X16K
modifications: Aib2; αMeS11; K17((2-[2-(2-Amino-ethoxy)-ethoxy]-acetyl)2-(γGlu)-CO-(CH2)18-CO2H); Aib20; C-terminal NH2
B9: Peptide 83 (peptide)
peptide: B4 peptide with X13L, X16K, E28X
modifications: Aib2; K17((2-[2-(2-Amino-ethoxy)-ethoxy]-acetyl)2-(γGlu)-CO-(CH2)18-CO2H); Aib20; D-Glu28; C-terminal NH2
B10: Peptide 89 (peptide)
peptide: B4 peptide with E3X, X13L, X16K
modifications: Aib2; Aad3; K17((2-[2-(2-Amino-ethoxy)-ethoxy]-acetyl)2-(γGlu)-CO-(CH2)18-CO2H); Aib20; C-terminal NH2
B11: Peptide 66 (peptide)
peptide: B4 peptide with X16E, I27L
modifications: Aib2; αMeL13; K17((2-[2-(2-Amino-ethoxy)-ethoxy]-acetyl)2-(γGlu)-CO-(CH2)18-CO2H); Aib20; C-terminal NH2
B12: Peptide 81 (peptide)
peptide: B4 peptide with S11X, X13L, X16K
modifications: Aib2; D-Ser11; K17((2-[2-(2-Amino-ethoxy)-ethoxy]-acetyl)2-(γGlu)-CO-(CH2)18-CO2H); Aib20; C-terminal NH2
B13: Peptide 64 (peptide)
peptide: B1 peptide with K16S, I17K, K28E
modifications: Aib2; αMeL13; K17((2-[2-(2-Amino-ethoxy)-ethoxy]-acetyl)2-(γGlu)-CO-(CH2)18-CO2H); Aib20; C-terminal NH2
B14: Peptide 265 (peptide)
peptide: YXEGTXTSDXSIXLDXKAQXEFIXXLIEGG
modifications: Aib2; αMeF(2F)6; 4Pal10; αMeL13; Orn16; K17((2-[2-(2-Amino-ethoxy)-ethoxy]-acetyl)2-(γGlu)-CO-(CH2)16-CO2H); Aib20; D-Glu24; αMeY25; C-terminal NH2
B15: Peptide 63 (peptide)
peptide: B2 peptide with X6F, E21A
modifications: Aib2; αMeL13; K17((2-[2-(2-Amino-ethoxy)-ethoxy]-acetyl)2-(γGlu)-CO-(CH2)18-CO2H); Aib20; C-terminal NH2
B16: Peptide 62 (peptide)
peptide: B1 peptide with I17K, K28E
modifications: Aib2; αMeL13; K17((2-[2-(2-Amino-ethoxy)-ethoxy]-acetyl)2-(γGlu)-CO-(CH2)18-CO2H); Aib20; C-terminal NH2
B17: Peptide 65 (peptide)
peptide: B1 peptide with K16T, I17K, K28E
modifications: Aib2; αMeL13; K17((2-[2-(2-Amino-ethoxy)-ethoxy]-acetyl)2-(γGlu)-CO-(CH2)18-CO2H); Aib20; C-terminal NH2
B18: Peptide 95 (peptide)
peptide: B1 peptide with F6X, X13L
modifications: Aib2; αMeF6; Aib20; K28((2-[2-(2-Amino-ethoxy)-ethoxy]-acetyl)2-(γGlu)-CO-(CH2)18-CO2H); C-terminal NH2
B19: Peptide 99 (peptide)
peptide: B2 peptide with E16K, E21A
modifications: Aib2; αMeF6; αMeL13; K17((2-[2-(2-Amino-ethoxy)-ethoxy]-acetyl)2-(γGlu)-CO-(CH2)18-CO2H); Aib20; C-terminal NH2
B20: Peptide 103 (peptide)
peptide: B2 peptide
modifications: Aib2; αMeF(2F)6; αMeL13; K17((2-[2-(2-Amino-ethoxy)-ethoxy]-acetyl)2-(γGlu)-CO-(CH2)18-CO2H); Aib20; C-terminal NH2
B21: Peptide 4 (peptide)
peptide: YXEGTXTSDXSIXLDXKAQXEFIXXLIEGGPSSGAPPPS
modifications: Aib2; αMeF(2F)6; 4Pal10; αMeL13; Orn16; K17((2-[2-(2-Amino-ethoxy)-ethoxy]-acetyl)2-(γGlu)-CO-(CH2)16-CO2H); Aib20; D-Glu24; αMeY25; C-terminal NH2
B22: Peptide 98 (peptide)
peptide: B2 peptide with X13L, E16K, E21A
modifications: Aib2; αMeF6; K17((2-[2-(2-Amino-ethoxy)-ethoxy]-acetyl)2-(γGlu)-CO-(CH2)18-CO2H); Aib20; C-terminal NH2

Experiments:
human GLP-1 receptor = human GLP-1 receptor (human, UniProt P43220 24-463); assay: cell-based or functional assay
[1] = target: T1, human gastric inhibitory peptide …; assay: cell-based or functional assay

Row | Binder | hGLPIR cAMP EC50 ratio (human GLP-1 receptor) | hGIPR cAMP EC50 ratio [1]
1 | B1 | 0.0268 | –
2 | B2 | 1.85 | –
3 | B3 | 0.0225 | –
4 | B4 | 0.237 | –
5 | B5 | 1.25 | –
6 | B6 | 0.85 | –
7 | B7 | 0.173 | –
8 | B8 | 0.354 | –
9 | B9 | 0.166 | –
10 | B10 | 0.175 | –
11 | B11 | 0.255 | –
12 | B12 | 0.063 | –
13 | B13 | 0.429 | –
14 | B14 | 3.27 | 9.77
15 | B15 | 0.386 | –
16 | B16 | 0.463 | –
17 | B17 | 0.233 | –
18 | B18 | 0.0576 | –
19 | B19 | 0.629 | –
20 | B20 | 0.655 | –
21 | B21 | 1.41 | –
22 | B22 | 0.384 | –
